Source: article PMC7367873, “Dissecting the sequence determinants for dephosphorylation by the catalytic subunits of phosphatases PP1 and PP2A” (Nature Communications, 2020)

B1: RHPN2 (protein, UniProt Q8IUC4 1-686, looked up)
Rhophilin-2: MTDALLPAAPQPLEKENDGYFRKGCNPLAQTGRSKLQNQRAALNQQILKAVRMRTGAENLLKVATNSKVREQVRLELSFVNSDLQMLKEELEGLNISVGVYQNTEEAFTIPLIPLGLKETKDVDFAVVLKDFILEHYSEDGYLYEDEIADLMDLRQACRTPSRDEAGVELLMTYFIQLGFVESRFFPPTRQMGLLFTWYDSLTGVPVSQQNLLLEKASVLFNTGALYTQIGTRCDRQTQAGLESAIDAFQRAAGVLNYLKDTFTHTPSYDMSPAMLSVLVKMMLAQAQESVFEKISLPGIRNEFFMLVKVAQEAAKVGEVYQQLHAAMSQAPVKENIPYSWASLACVKAHHYAALAHYFTAILLIDHQVKPGTDLDHQEKCLSQLYDHMPEGLTPLATLKNDQQRRQLGKSHLRRAMAHHEESVREASLCKKLRSIEVLQKVLCAAQERSRLTYAQHQEEDDLLNLIDAPSVVAKTEQEVDIILPQFSKLTVTDFFQKLGPLSVFSANKRWTPPRSIRFTAEEGDLGFTLRGNAPVQVHFLDPYCSASVAGAREGDYIVSIQLVDCKWLTLSEVMKLLKSFGEDEIEMKVVSLLDSTSSMHNKSATYSVGMQKTYSMICLAIDDDDKTDKTKKISKKLSFLSWGTNKNRQKSASTLCLPSVGAARPQVKKKLPSPFSLLNSDSSWY
B2: MITF (protein, UniProt O75030 1-526, looked up)
Microphthalmia-associated …: MQSESGIVPDFEVGEEFHEEPKTYYELKSQPLKSSSSAEHPGASKPPISSSSMTSRILLRQQLMREQMQEQERREQQQKLQAAQFMQQRVPVSQTPAINVSVPTTLPSATQVPMEVLKVQTHLENPTKYHIQQAQRQQVKQYLSTTLANKHANQVLSLPCPNQPGDHVMPPVPGSSAPNSPMAMLTLNSNCEKEGFYKFEEQNRAESECPGMNTHSRASCMQMDDVIDDIISLESSYNEEILGLMDPALQMANTLPVSGNLIDLYGNQGLPPPGLTISNSCPANLPNIKRELTACIFPTESEARALAKERQKKDNHNLIERRRRFNINDRIKELGTLIPKSNDPDMRWNKGTILKASVDYIRKLQREQQRAKELENRQKKLEHANRHLLLRIQELEMQARAHGLSLIPSTGLCSPDLVNRIIKQEPVLENCSQDLLQHHADLTCTTTLDLTDGTITFNNNLGTGTEANQAYSVPTKMGSKLEDILMDDTLSPVGVTDPLLSSVSPGASKTSSRRSSMSMEETEHTC
B3: MAP3K2 (protein, UniProt Q9Y2U5 1-619, looked up)
Mitogen-activated protein …: MDDQQALNSIMQDLAVLHKASRPALSLQETRKAKSSSPKKQNDVRVKFEHRGEKRILQFPRPVKLEDLRSKAKIAFGQSMDLHYTNNELVIPLTTQDDLDKAVELLDRSIHMKSLKILLVINGSTQATNLEPLPSLEDLDNTVFGAERKKRLSIIGPTSRDRSSPPPGYIPDELHQVARNGSFTSINSEGEFIPESMDQMLDPLSLSSPENSGSGSCPSLDSPLDGESYPKSRMPRAQSYPDNHQEFSDYDNPIFEKFGKGGTYPRRYHVSYHHQEYNDGRKTFPRARRTQGTSLRSPVSFSPTDHSLSTSSGSSIFTPEYDDSRIRRRGSDIDNPTLTVMDISPPSRSPRAPTNWRLGKLLGQGAFGRVYLCYDVDTGRELAVKQVQFDPDSPETSKEVNALECEIQLLKNLLHERIVQYYGCLRDPQEKTLSIFMEYMPGGSIKDQLKAYGALTENVTRKYTRQILEGVHYLHSNMIVHRDIKGANILRDSTGNVKLGDFGASKRLQTICLSGTGMKSVTGTPYWMSPEVISGEGYGRKADIWSVACTVVEMLTEKPPWAEFEAMAAIFKIATQPTNPKLPPHVSDYTRDFLKRIFVEAKLRPSADELLRHMFVHYH
B4: PPP1R12A (protein, UniProt O14974 1-1030, looked up)
Protein phosphatase 1 …: MKMADAKQKRNEQLKRWIGSETDLEPPVVKRQKTKVKFDDGAVFLAACSSGDTDEVLKLLHRGADINYANVDGLTALHQACIDDNVDMVKFLVENGANINQPDNEGWIPLHAAASCGYLDIAEFLIGQGAHVGAVNSEGDTPLDIAEEEAMEELLQNEVNRQGVDIEAARKEEERIMLRDARQWLNSGHINDVRHAKSGGTALHVAAAKGYTEVLKLLIQAGYDVNIKDYDGWTPLHAAAHWGKEEACRILVDNLCDMEMVNKVGQTAFDVADEDILGYLEELQKKQNLLHSEKRDKKSPLIESTANMDNNQSQKTFKNKETLIIEPEKNASRIESLEQEKVDEEEEGKKDESSCSSEEDEEDDSESEAETDKTKPLASVTNANTSSTQAAPVAVTTPTVSSGQATPTSPIKKFPTTATKISPKEEERKDESPATWRLGLRKTGSYGALAEITASKEGQKEKDTAGVTRSASSPRLSSSLDNKEKEKDSKGTRLAYVAPTIPRRLASTSDIEEKENRDSSSLRTSSSYTRRKWEDDLKKNSSVNEGSTYHKSCSFGRRQDDLISSSVPSTTSTPTVTSAAGLQKSLLSSTSTTTKITTGSSSAGTQSSTSNRLWAEDSTEKEKDSVPTAVTIPVAPTVVNAAASTTTLTTTTAGTVSSTTEVRERRRSYLTPVRDEESESQRKARSRQARQSRRSTQGVTLTDLQEAEKTIGRSRSTRTREQENEEKEKEEKEKQDKEKQEEKKESETSREDEYKQKYSRTYDETYQRYRPVSTSSSTTPSSSLSTMSSSLYASSQLNRPNSLVGITSAYSRGITKENEREGEKREEEKEGEDKSQPKSIRERRRPREKRRSTGVSFWTQDSDENEQEQQSDTEEGSNKKETQTDSISRYETSSTSAGDRYDSLLGRSGSYSYLEERKPYSSRLEKDDSTDFKKLYEQILAENEKLKAQLHDTNMELTDLKLQLEKATQRQERFADRSLLEMEKRERRALERRISEMEEELKMLPDLKADNQRLKDENGALIRVISKLSK
B5: CCT2 (protein, UniProt P78371 2-535, looked up)
T-complex protein 1 subunit …: ASLSLAPVNIFKAGADEERAETARLTSFIGAIAIGDLVKSTLGPKGMDKILLSSGRDASLMVTNDGATILKNIGVDNPAAKVLVDMSRVQDDEVGDGTTSVTVLAAELLREAESLIAKKIHPQTIIAGWREATKAAREALLSSAVDHGSDEVKFRQDLMNIAGTTLSSKLLTHHKDHFTKLAVEAVLRLKGSGNLEAIHIIKKLGGSLADSYLDEGFLLDKKIGVNQPKRIENAKILIANTGMDTDKIKIFGSRVRVDSTAKVAEIEHAEKEKMKEKVERILKHGINCFINRQLIYNYPEQLFGAAGVMAIEHADFAGVERLALVTGGEIASTFDHPELVKLGSCKLIEEVMIGEDKLIHFSGVALGEACTIVLRGATQQILDEAERSLHDALCVLAQTVKDSRTVYGGGCSEMLMAHAVTQLANRTPGKEAVAMESYAKALRMLPTIIADNAGYDSADLVAQLRAAHSEGNTTAGLDMREGTIGDMAILGITESFQVKRQVLLSAAEAAEVILRVDNIIKAAPRKRVPDHHPC

Each molecule was assayed on GFP-14-3-3β (assay: GFP-14-3-3β co-IP with LC-MS/MS, untreated GFP-14-3-3β versus GFP control (14-3-3 interactome)). Settings: untreated vs GFP; LFQ intensities, replicates 1-3.
Assay type: binding, human

First: B1
Second: B2
The “Difference (log2), untreated vs GFP” value of the first is higher: 5.43 log2 for the first, 4.611 log2 for the second.

Compared with B3, B4 is lower in “Difference (log2), untreated vs GFP” value: 6.201 log2 for the first, 2.126 log2 for the second.

With B5 the “Difference (log2), untreated vs GFP” value was 0.06414 log2.

These molecules were tested on GFP-14-3-3β and its binding proteins (assay: GFP-14-3-3β co-IP with LC-MS/MS label-free quantification, untreated versus PP1c-treated). Settings: PP1 vs untreated; LFQ intensities, replicates 1-3.
Set-up: species or system human

Going from B1 to B2, the “Difference (log2), PP1 vs untreated” value rises from -1.815 log2 to -1.637 log2.

Going from B3 to B4, the “Difference (log2), PP1 vs untreated” value falls from -1.618 log2 to -1.93 log2.

With B5 the “Difference (log2), PP1 vs untreated” value was -1.71 log2.
